Literature values in publication PMC6522352.

Target: IL-9 (Mus musculus) (UniProt P15247)
Chain of UniProt P15247 (P15247 19-144): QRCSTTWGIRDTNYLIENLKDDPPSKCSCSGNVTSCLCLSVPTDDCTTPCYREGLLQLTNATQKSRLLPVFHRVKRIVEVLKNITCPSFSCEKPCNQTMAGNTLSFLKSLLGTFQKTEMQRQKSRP

Kd: 0.1 nM
Substance: IL-9 receptor alpha (from UniProt Q01114)
